Series [1] relates to MCF-7 tumor cells. Kind of series: In vitro cytotoxicity assay: inhibition of proliferation of MCF-7 cells, CCK-8 (Example 6). Type of series: cell-based. The settings on record: Homo sapiens, MCF7, read-out: IC50 (50% inhibition of cell proliferation).
Description: Day 0. Five-thousand MCF7 cells were plated per well in a 96-well test plate in 100 ul of rich media on day 0.
Day 1. A shadow plate was made for each test plate, with each well of the shadow plate containing media or 3× the intended final concentration of test agent in media in each well. As a negative control, media is used.
After making the shadow plate, 50 ul is transferred from each well of the shadow plate to the corresponding well of the test plate to generate the final concentrations of test agent in the wells of the test plate.
Day 5. Cell proliferation is determined by adding Dojindo CCK-8 reagent and incubating and measuring absorbance of the dye according to the manufacturer's instructions.
The test system of series [2] is MCF7 tumors. As to the kind of experiment: In vivo tumor growth inhibition, MCF7 xenografts. The note with it: IV days 0, 4 and 8; IGF-MTX (long-R3-IGF-1-methotrexate) 10 nmol of MTX/g, free MTX 40 nmol/g. Details: species or system nu/nu mice. As to the method: (§1) MCF7 cells (human breast adenocarcinoma cell line) were grown in Eagle's minimal essential medium supplemented with 0.1 mg/ml insulin and 10% FCS. The estrogen-dependent MCF7-L cell line was a gift from Deepali Sachdev of the University of Minnesota. MCF7-L cells were grown in modified IMEM medium (Invitrogen, Carlsbad, California, USA) supplemented with 0.1 mg/ml insulin. LNCaP cells (metastatic human prostatic adenocarcinoma) were grown in RPMI supplemented with glutamine and 10% FCS (Invitrogen, Carlsbad, California, USA). Cells were grown at 37° C. in a 5% CO2 humidified atmosphere. In each case, cells were grown to approximately two-thirds confluence, harvested by trypsinization, washed with rich medium and then washed twice with PBS and resuspended in phosphate buffered saline in BD matrigel matrix (Becton Dickinson, Franklin Lakes, New Jersey, USA). Cells were injected intradermally in mice on the back. An estrogen pellet (0.5 mg estradiol, 60-day release, Innovative Research of America, Sarasota, Florida, USA) was implanted subcutaneously between the shoulder blades two days before implanting MCF7 and MCF7-L cells. MCF7 and MCF7-L cells were implanted in 8-week-old female nu/nu mice. LNCaP cells were implanted in 8-week-old male nu/nu mice. The IGF-MTX conjugate was administered in 2 mM HCl, 1% glycerol. MTX was dissolved in PBS. […]

Series [3] deals with MCF7 cells. As to the kind of experiment: In vitro proliferation assay of MCF7 cells, tritiated thymidine (Example 15). The series is classed as cell-based, human. As to the method: MCF7 was cultured in Eagle's Minimum Essential Medium, with 0.01 mg/ml human recombinant insulin, 10% fetal bovine serum, and pen/strep. For in vitro proliferation assays it was plated at 8,000 cells per well in a 96-well plate. […] After 5 more days, 1 uCi tritiated thymidine was added per well in 50 ul fresh medium. Six hours later the cells were harvested and radioactivity counted.

Series [4] has as its system LNCaP cells. Kind of series: In vitro proliferation assay of LNCaP cells, Cell Counting Kit-8. Type of series: cell-based, human. The settings on record: highest tested concentration of 2000 nM, P=0.003, IGF-MTX = long-R3-IGF conjugate. As to the method:
LNCaP cells were plated in a 96-well plate at 5,000 cells per well in RPMI+glutamine+10% FCS medium in 100 μl. After 24 hours, 100 μl fresh medium was added containing no drug (control), IGF-MTX or MTX at the indicated concentration. After 48 hours of further incubation, cell proliferation was assayed with the Cell Counting Kit-8 (Dojindo Molecular Technologies, Kumamoto, Japan) according to the manufacturer's instructions.
For orientation: Tetrazolium dyes change colour on reduction, which living cells bring about.

The test system of series [5] is MCF7-L tumors. Kind of series: In vivo tumor growth inhibition, MCF7-L xenografts. Details: species or system nu/nu mice. The settings on record: day 22; IV days 0 and 5; IGF-MTX (long-R3-IGF-1-methotrexate) 10 nmol of MTX/g, free MTX 40 nmol/g. As to the method:
as §1, with “mice.” for “mice. LNCaP cells were implanted in 8-week-old male nu/nu mice. The IGF-MTX conjugate was administered in 2 mM HCl, 1% glycerol. MTX was dissolved in PBS.”
The second in vivo study was conducted using an estrogen-dependent MCF7 strain, MCF7-L. Tumor cells were implanted, and mice were monitored for tumor growth. […]

Series [6] deals with MDS. The note with it: higher-risk patients, phase III trial; cited from earlier work.
Details of series [7]: species or system Beagle dogs. The settings on record: dog, in vivo. The text has this:
Toxicokinetic (TK) parameters for free MTX were estimated from plasma concentration-time data arising from a 5-dose once weekly intravenous infusion study with insulin-like growth factor (IGF) MTX conjugate at low (0.5 μEq/kg), mid (2.0 μEq/kg) and high (4.0 μEq/kg) MTX equivalent dose levels. No consistent differences in the plasma levels of MTX were observed between animals of different genders and thus data from males and females were combined. Plasma levels of MTX increased with time both during and following a 1-hour intravenous infusion of the IGF-MTX conjugate. […] Both the AUC∞ and Cmax values were dose proportional. […] The pharmacokinetics of MTX following Day 29 of dosing were similar to those following Day 1 of dosing.
Following intravenous administration of the IGF-MTX conjugate in the dose range of 0.5-4.0 μEq/kg to Beagle dogs, serum levels of the IGF-MTX conjugate decreased quickly. There was no gender bias and an increase in serum exposure was observed on Day 29 compared to Day 1. […] The elimination of the IGF-MTX conjugate was marginally slower with successive doses, resulting in an increased plasma exposure. The elimination of the IGF-MTX conjugate preceded the development of maximal MTX concentrations.

For series [8] the following is noted: rat, in vivo.
Series [9] deals with soluble IGF binding proteins. The settings on record: compared to wild-type IGF-1; Francis 1992, Tomas 1993, U.S. Pat. No. 4,876,242; cited from earlier work.
The nature of series [10]: Solubility of IGF-1R ligand-MTX conjugates. The settings on record: phosphate buffered saline, or any neutral pH solution containing salt, over about 50 mM NaCl. The series is classed as physicochemical.
Series [11] addresses T1, dihydrofolate reductase (DHFR) (Homo sapiens, UniProt P00374).
T1 construct: purchased Sigma-Aldrich
T1 sequence (P00374 1-187): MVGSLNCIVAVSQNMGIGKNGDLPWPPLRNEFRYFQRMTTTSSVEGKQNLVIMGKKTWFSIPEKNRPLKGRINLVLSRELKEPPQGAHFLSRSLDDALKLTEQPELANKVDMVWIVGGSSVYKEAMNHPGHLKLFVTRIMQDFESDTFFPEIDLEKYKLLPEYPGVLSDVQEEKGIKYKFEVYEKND
Kind of series: Dihydrofolate reductase inhibition assay (Sigma-Aldrich kit). The series is classed as biochemical. The settings on record: IC50 in nEq/L divided by MTX per IGF; read-out: inhibition constant in terms of protein concentration. As to the method: The experiments were done with the dihydrofolate reductase assay kit from Sigma-Aldrich (St. Louis, MO, USA), according to the manufacturer's instructions. In the assay dihydrofolate reductase is mixed with pH 7.5 buffer. […] It was incubated for 30 seconds to allow inhibitor binding. Then NADPH is added to 50 uM final concentration, and then dihydrofolic acid is added to 60 uM final concentration. The reaction is monitored by measuring absorbance at 340 nm.

Series [12] concerns LNCaP tumors. Kind of series: In vivo tumor growth inhibition, LNCaP xenografts. The settings on record: LNCaP model, 8 nmol/g IGF-MTX vs. 50 nmol/g MTX. Details: species or system nu/nu mice. As to the method:
as §1, with “back.” for “back. An estrogen pellet (0.5 mg estradiol, 60-day release, Innovative Research of America, Sarasota, Florida, USA) was implanted subcutaneously between the shoulder blades two days before implanting MCF7 and MCF7-L cells. MCF7 and MCF7-L cells were implanted in 8-week-old female nu/nu mice. LNCaP cells were implanted in 8-week-old male nu/nu mice. The IGF-MTX conjugate was administered in 2 mM HCl, 1% glycerol. MTX was dissolved in PBS.”
In a final in vivo study, prostate cancer LNCaP cells were implanted intradermally on day 0 in mice, which were then randomized to different treatment groups. […] Tumor size was much smaller in the groups treated with 8 nmol/g or 3.2 nmol/g of the IGF-MTX conjugate (dosage expressed as moles of each MTX molecule) compared to mice treated with higher doses of free MTX (50, 20 or 8 nmol/g). […]

Series [13] concerns LNCaP cells. The note with it: 48 hours, nM methotrexate groups, McTavish et al. 2009; cited from earlier work.

For the molecule `CN(Cc1cnc2nc(N)nc(N)c2n1)c1ccc(C(=O)N[C@@H](CCC(=O)O)C(=O)O)cc1` [Methotrexate, methotrexate], the IC50 in series [1] was 88 nM; in [3] (Homo sapiens, MCF7, parallel assay, free drug), 17 nM. Besides, the “tumor growth over 12 days of observation” value in series [2] is listed as “tumors continued to grow”. Moreover, in series [3] (MCF-7 cells in vitro), the “IC50 of MTX lower than IGF-MTX” value is reported as “about 50 fold”. The “inhibition of proliferation compared with IGF-MTX” value in series [4] is “significantly greater inhibition than IGF-MTX”. For the same molecule, the tumor growth inhibition result in series [5] is “inhibited about equally”.
As for `Nc1ncn([C@@H]2O[C@H](CO)[C@@H](O)[C@H]2O)c(=O)n1` [azacitidine], in series [6], the patients with responses entry was “approximately 50%” and the “survival at 2 years of follow-up compared to conventional care” value is recorded as “doubled”.
Take IGF-MTX: in series [7], the “apparent clearance of MTX” value was 5.67 to 7.67 mL/min/kg, the “apparent volume of distribution of the IGF-MTX conjugate” value fell in the range of 0.07 to 0.20 L/kg, the “decrease of apparent clearance on Day 29 compared to Day 1” value was 25-50% and the “mean residence time of the IGF-MTX conjugate” value lay within 1.4 to 5.3 h. Moreover, in series [7], the “terminal half-life of the IGF-MTX conjugate” value lay in the range of 2.5 to 4.6 h. Further, the “apparent clearance of the IGF-MTX conjugate” value in series [7] (iv) was 0.33 to 0.83 mL/min/kg. In series [8], the decrease of platelets entry is given as “approximately 38%”, the “increase of mean spleen weight” value was in the range of 17 to 38%, the “mean increases or decreases in blood glucose” value was −1.8±7 to 7.5±3.4 and the reduction in neutrophils is 50-57%. The “reduction of WBC's” value in [8] is 5-35%.
Consider “des(1-3)IGF1: lacks the first three residues of wild-type IGF-1, SEQ ID NO: 7 [reference compound]”, for which the “binding affinity to the soluble IGF binding proteins” value in [9] is reported as “reduced binding affinity”.
In the case of “insulin-MTX: insulin conjugated to methotrexate”, the solubility result in series [10] is reported as “low solubility”.

B1: LR3IGF-MTX (conjugate)
chain: MFPAMPLSSLFVNGPRTLCGALVDALQFVCGDRGFYFNKPTGYGSSSRRAPQTGIVDECCFRSCDLRRLEMYCAPLKPAKSEA
B1: in series [10], the solubility entry was “low solubility”. The IC50 in [11] is 35 nM; in series [13], approximately 1000 nM. The “more effective than free MTX at fold lower molar dose of MTX groups” value in series [12] is listed as “at least 6 fold”.

B2: IGF132: variant of IGF-1, SEQ ID NO: 4, disclosed in U.S. Pat. No. 4,876,242 (protein)
chain: FVNQHLCGSHLVEALYLVCGDRGFYFNKPTGYGSSSRRAPQTGIVDECCFRSCDLRRLEMYCAPLKPAKSA
Take B2: the “binding affinity to the soluble IGF binding proteins” value in series [9] was “reduced binding affinity”.

Values taken from patent US12527876B2, “Insulin-like growth factor-chemotherapeutic conjugate for treating myelodysplastic syndrome” (IGF Oncology, LLC, priority 2017, dated 2026).
